This passage reports Kd results from PMC13598245 (2026).

Experiment in all cases: FP
Experiment [1] concerns the target T1, 14-3-3θ (purified, recombinant) (UniProt P27348 1-245).
T1 chain: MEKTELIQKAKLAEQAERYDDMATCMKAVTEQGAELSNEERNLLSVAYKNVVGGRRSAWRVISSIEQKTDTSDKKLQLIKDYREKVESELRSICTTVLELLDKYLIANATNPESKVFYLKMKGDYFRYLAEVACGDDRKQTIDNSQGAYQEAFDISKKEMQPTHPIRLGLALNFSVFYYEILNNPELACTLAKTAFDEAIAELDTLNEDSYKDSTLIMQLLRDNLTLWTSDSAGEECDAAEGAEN

The target in experiment [2] is T2, 14-3-3η (purified, recombinant) (UniProt Q04917 1-246).
T2 chain: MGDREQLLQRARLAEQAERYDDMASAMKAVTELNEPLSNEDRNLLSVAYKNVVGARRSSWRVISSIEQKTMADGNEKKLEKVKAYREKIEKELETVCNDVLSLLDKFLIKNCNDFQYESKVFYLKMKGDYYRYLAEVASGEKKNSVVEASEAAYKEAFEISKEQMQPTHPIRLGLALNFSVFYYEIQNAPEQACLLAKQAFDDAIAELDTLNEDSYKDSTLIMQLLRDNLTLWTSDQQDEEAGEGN

Experiment [3] concerns the target T1, 14-3-3θ (purified, recombinant).
Experiment [4] deals with T2, 14-3-3η (purified, recombinant).

Like-named read-outs stand apart in the source and are kept apart here. Square brackets hold non-standard residues; d marks the D form. Ends that are not written are not given here. * marks the point of attachment. FITC = O=C1OC2(c3ccc(O)cc3Oc3cc(O)ccc32)c2ccc(NC(=S)*)cc21; pS = N[C@@H](COP(=O)(O)O)C(=O)O

A word on the Kd: it is the concentration at which binding is half-saturated. On to {FITC}-RPRSR[pS]LSPGRSP [MAST1^156-168 p-S161], for which the Kd was 10.7 µM in experiment [1] and 3.6 µM in experiment [2].
The like results for {FITC}-DGRRW[pS]LASLPSS [MAST1^85-97 p-S90] were, in that order, 23.7 µM and 12.3 µM.
As to {FITC}-RSRTP[pS]LPTPPTR [Tau^209-221 p-S214], the results for the Kd in experiment [3] and in experiment [4] were 90.9 µM and 21 µM, respectively.
